Measurements: patent US20030157712A1, “Methods for determining cell responses through EphB receptors” (priority 1997, published 2003)

Legend:
HRMEC = experiment: Cell adhesion assay (HRMEC); format: cell-based, human; details: 90 min after plating
Experimental: (§1) Cell adhesion assay. Six well plates (Falcon) were coated with thin layers of Matrigel or with 0.5 μg cm^2 fibronectin (29). Growth medium was replaced 48 h before harvest with binding medium, either DMEM (HRMEC) or ∝-MEM (P19) containing 1% bovine albumin. Cells were recovered by trypsinization (HRMEC) or vigorous tituration (P19) and washed three times with binding medium and plated at 1×10^5 cells per well. Ligands were added coincident with plating at concentrations indicated above. After 90 min, unattached cells were dislodged by applying 4 brisk slaps of the plate on a horizontal surface, and the attached cell layer was carefully washed once with PBS containing calcium and magnesium to collect the remaining unattached cells. Attached cells were collected after incubation in Dispase (Collaborative Biomedical Products). Separate fractions were recovered by centrifugation, washed once and trypan blue excluding cells counted visually using a hemocytomer. The ratio of attached to total number of cells recovered were calculated for each of three wells. Data are expressed as mean+/−SEM and are representative of three independent experiments.

EphB2 = target: T1, EphB2 (Homo sapiens, UniProt P29323); experiment: EphB2 immunoprecipitation and phosphotyrosine immunoblot; format: cell-based; details: HRMEC; Fc fusion proteins 500 ng ml^−1
T1 construct: EphB2 receptor immunoprecipitates (from HRMEC); endogenous in cells; host or cells: HRMEC
T1 sequence (P29323 19-1055): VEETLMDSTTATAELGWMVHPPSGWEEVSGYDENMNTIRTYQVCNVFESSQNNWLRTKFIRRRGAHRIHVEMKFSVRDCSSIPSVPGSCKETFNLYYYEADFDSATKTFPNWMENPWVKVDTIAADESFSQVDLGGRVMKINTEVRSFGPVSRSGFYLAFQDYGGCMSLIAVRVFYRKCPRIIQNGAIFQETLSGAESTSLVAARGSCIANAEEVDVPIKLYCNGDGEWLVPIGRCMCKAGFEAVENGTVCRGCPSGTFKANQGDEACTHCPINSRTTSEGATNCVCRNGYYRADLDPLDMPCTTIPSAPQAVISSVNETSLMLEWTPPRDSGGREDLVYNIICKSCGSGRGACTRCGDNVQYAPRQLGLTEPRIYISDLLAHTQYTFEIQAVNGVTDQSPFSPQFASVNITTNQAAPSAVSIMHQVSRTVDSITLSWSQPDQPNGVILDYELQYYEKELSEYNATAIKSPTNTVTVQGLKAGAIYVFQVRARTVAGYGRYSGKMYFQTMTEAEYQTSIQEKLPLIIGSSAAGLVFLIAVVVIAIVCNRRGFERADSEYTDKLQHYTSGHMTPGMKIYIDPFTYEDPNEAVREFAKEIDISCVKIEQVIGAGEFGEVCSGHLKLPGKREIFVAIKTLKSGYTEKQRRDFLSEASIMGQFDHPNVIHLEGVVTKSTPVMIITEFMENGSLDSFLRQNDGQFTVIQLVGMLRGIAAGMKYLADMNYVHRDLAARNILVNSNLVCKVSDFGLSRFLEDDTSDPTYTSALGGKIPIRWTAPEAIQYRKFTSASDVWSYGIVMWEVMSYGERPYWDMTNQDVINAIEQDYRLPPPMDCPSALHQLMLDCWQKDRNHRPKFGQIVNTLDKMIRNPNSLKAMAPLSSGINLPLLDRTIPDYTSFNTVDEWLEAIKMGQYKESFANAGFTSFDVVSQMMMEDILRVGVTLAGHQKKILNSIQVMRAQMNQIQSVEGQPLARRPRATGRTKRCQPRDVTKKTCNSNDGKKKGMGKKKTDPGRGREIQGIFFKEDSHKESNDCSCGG
Experimental: (§2) Ligand stimulation and immunoprecipitation of endogenous EphB receptors. Primary HRMEC were used at passages 3-6, as described (12). P19 cells were cultured as recommended (ATCC, Rockville, Md.). Ninety min prior to ligand stimulation, cells (2×10^5cells/60 mm dish) were plated on Matrigel-(Collaborative Biomedical Products, Becton Dickinson, Bedford, Mass., as recommended) or fibronectin-coated (29) dishes. Ligand (ephrin-B1/Fc) or control (ORF/Fc) (30) multimers were generated by preincubation with anti-Fc at a fixed ratio of 0.1× the indicated concentrations of Fc fusion proteins [50 ng ml^−1 anti-Fc for 500 ng ml^−1 Fc fusion protein]. If not otherwise indicated, Fc fusion proteins (ephrinB1/Fc or ORF/Fc) were used at 500 ng ml^−1 in the absence or presence of preclustering anti-Fc at 50 ng ml^−1. Cells were incubated with agonists at 37° C. for 10 min, or as described in the figure legends. Immunoprecipitations were conducted on either cell lysates (P19) or on Triticum vulgaris lectin affinity purified fractions of HRMEC (15) (needed to reduce the background from Matrigel). Precipitated proteins were analyzed by immunoblot (15).
EphB1 and EphB2 immunoprecipitates from HRMEC stimulated with dimeric or multimeric (+anti-Fc) ephrin-B1/Fc were analyzed for receptor activation (anti-PY), and coprecipitation of heteromeric receptors (anti-EphB1, or anti-EphB2). […]

[1] = test system: LMW-PTP recruitment to EphB1 and EphB2 complexes; experiment: LMW-PTP recruitment to EphB1 and EphB2 complexes (co-immunoprecipitation, immunoblot); format: cell-based, human
Experimental: as §2, with “Immunoprecipitations were conducted on either cell lysates (P19) or on Triticum vulgaris lectin affinity purified fractions of HRMEC (15) (needed to reduce the background from Matrigel).” left out
(§3) It was reasoned that alternative signaling responses mediated through EphB receptors might reflect differential association of additional receptor signaling complex components. […] Accordingly, EphB1 immunoprecipitates were analyzed for LMW-PTP immunoreactivity (11,17).

P19 cells = experiment: Cell adhesion assay (P19); format: cell-based, murine; details: fibronectin coated dishes, 90 min
Experimental: as §1

[2] = test system: Grb2 and Grb10 and Nck recruitment to EphB1 complexes; experiment: Recruitment of SH2-containing adapter proteins to EphB1 complexes; format: cell-based
Experimental: as §2, with “Immunoprecipitations were conducted on either cell lysates (P19) or on Triticum vulgaris lectin affinity purified fractions of HRMEC (15) (needed to reduce the background from Matrigel).” left out
as §3

tyrosine phosphorylation of EphB2 (EphB2): stimulated
B1: ephrin-B1/Fc dimers: disulfide-linked immunoglobulin Fc fusion form of ephrin-B1 (protein)
chain: LAKNLEPVSWSSLNPKFLSGKGLVIYPKIGDKLDIICPRAEAGRPYEYYKLYLVRPEQAAACSTVLDPNVLVTCNRPEQEIRFTIKFQEFSPNYMGLEFKKHHDYYITSTSNGSLEGLENREGGVCRTRTMKIIMKVGQDPNAVTPEQLTTSRPSKEADNTVKMATQAPGSRGSLGDSDGKHETVNQEEKSGPGASGGSSGDPDGFFNSK
modifications: left off: a dimerising Fc or GST
HRMEC attachment to Matrigel- and fibronectin-coated surfaces (HRMEC): did not
recruitment of 18 kDa tyrosine phosphoprotein (LMW-PTP) to EphB1 and EphB2 immunoprecipitates [1]: not
P19 attachment to fibronectin (P19 cells): modest effect to decrease
recruitment of Grb2, Grb10 and Nck to EphB1 complexes, dimeric vs multimeric ligand [2]: did not differ
